The source of these data is patent publication US20240158497A1 (published 2024).

B1: MAb16666 (antibody, V domains shown)
VH: EVQLVESGGGLVQSGGSLRLSCAASGFTFSRYEMNWVRQAPGKGLEWVAYISNTGTTRDYSDSVKGRFTISRDNAKNSLYLQMSSLRVEDTAVYYCVREKFSGTSDWFDPWGQGTLVTVSS
VL: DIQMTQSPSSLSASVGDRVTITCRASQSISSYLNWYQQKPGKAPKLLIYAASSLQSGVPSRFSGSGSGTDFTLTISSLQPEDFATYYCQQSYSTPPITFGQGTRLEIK
B2: MAb16682 (antibody, V domains shown)
VH: EVQLVESGGGLVQPGGSLRLSCAASGFTFSTYWMNWVRQAPGKGLEWVANIKEDGSEKYYVDSVKGRFTISRDNAKNSLYLQMNSLRAEDTAVYYCAREGFGVVTYIWGQGTMVTVSS
VL: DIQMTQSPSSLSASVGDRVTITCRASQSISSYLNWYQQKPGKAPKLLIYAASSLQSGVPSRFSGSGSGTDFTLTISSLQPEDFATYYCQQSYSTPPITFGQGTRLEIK
B3: MAb16622 (antibody, V domains shown)
VH: EVQLVESGGGVVRPGGSLRLSCTASGFTFDDYGMSWVRQAPGKGLEWVSGINWNGGRTEYADAVKGRFIISRDNAKNSLYLQMNSLRAEDTALYFCARTELRWDYWGQGTLVTVSS
VL: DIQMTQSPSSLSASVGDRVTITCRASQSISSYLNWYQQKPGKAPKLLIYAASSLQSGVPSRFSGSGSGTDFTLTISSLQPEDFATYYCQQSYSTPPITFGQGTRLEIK
B4: MAb16637 (antibody, V domains shown)
VH: QVQLVQSGAEVKKPGASVKVSCKASGYTFTSLGISWVRQAPGQGLEWMGWISAYSGNRDYAQKFQGRVTMTTDTSTSTAYMELRSLRSDDTAVYYCARSLRFDYWGQGTLVTVSS
VL: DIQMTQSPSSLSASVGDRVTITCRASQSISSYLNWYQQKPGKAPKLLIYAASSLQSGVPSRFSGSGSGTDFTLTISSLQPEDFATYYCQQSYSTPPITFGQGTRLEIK
B5: MAb16673 (antibody, V domains shown)
VH: EVQLVQSGAEVKKPGESLKISCKGSGYSFTSYWIDWVRQMPGKGLEWMGIIYPDDSDTRYSPSFQGQVTMSVDKSISTAYLQWSSLKASDTAIYYCARHERGIVEAGTDYYYYYGMDVWGQGTTVTVSS
VL: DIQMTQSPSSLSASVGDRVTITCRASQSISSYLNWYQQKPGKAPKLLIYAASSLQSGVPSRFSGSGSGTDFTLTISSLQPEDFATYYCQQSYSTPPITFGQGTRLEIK
B6: MAb16618 (antibody, V domains shown)
VH: QVQLQESGPGLVKPSETLSLTCTVSGGSISNYYWTWIRQPPGKGLEWIGHISNSGTTNYNPSLKSRVTISVDTSKNQFSLKLTSVTAADTAVYYCARLPLGIAAVDTDYYYYFGMDVWGQGTTVTVSS
VL: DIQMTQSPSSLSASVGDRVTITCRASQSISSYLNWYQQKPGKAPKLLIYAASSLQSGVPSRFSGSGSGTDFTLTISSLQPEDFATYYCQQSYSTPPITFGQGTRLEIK
B7: MAb16659 (antibody, V domains shown)
VH: QVQLVQSGPEVKKPGSSVKVSCKASGGTIDRNEITWVRQAPGQGLEWMGVIIPILGEAHYERKFQGRLTITMDESTSTAYMELSNLRSEDTAVYYCARERAARGYLDYWGQGTLVTVSS
VL: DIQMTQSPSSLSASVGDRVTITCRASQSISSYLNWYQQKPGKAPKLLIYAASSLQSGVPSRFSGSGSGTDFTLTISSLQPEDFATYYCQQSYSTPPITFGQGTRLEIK
B8: MAb16656 (antibody, V domains shown)
VH: EVQLVESGGGLVQPGRSLRLSCAASGFTLDDFAMHWVRQAPGKGLEWVSGISWNSGNIGYADSVKGRFTISRDNARNSLYLQMNSLRAEDTALYYCTSGYYLYYAMDVWGQGTTVTVSS
VL: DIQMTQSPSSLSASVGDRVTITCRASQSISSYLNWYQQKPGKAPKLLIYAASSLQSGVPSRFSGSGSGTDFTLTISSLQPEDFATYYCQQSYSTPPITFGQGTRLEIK
B9: MAb16662 (antibody, V domains shown)
VH: EVQLVESGGGLVQPGGSLRLSCTASGFTFSNYAIFWVRQAPGKGLEYVSGISNNGVTKYYADSVRDRFTISRDNSRNTVSIQMDSLRTEDMAVYYCARENWGSDDGFDIWGQGTMVTVSS
VL: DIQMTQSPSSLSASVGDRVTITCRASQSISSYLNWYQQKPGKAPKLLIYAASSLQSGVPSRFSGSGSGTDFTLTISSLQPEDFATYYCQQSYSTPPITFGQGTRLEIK
B10: MAb16614 (antibody, V domains shown)
VH: QVQLVESGGGVVQPGGSLRLSCAASGFTFSTYDIHWVRQAPGKGLEWVAVISFDGSNRNYGDSVKGRFTISRDNSDNTLFLEMNNLRFEDTAVYYCAKEGYGVDFQHWGQGTLVTVSS
VL: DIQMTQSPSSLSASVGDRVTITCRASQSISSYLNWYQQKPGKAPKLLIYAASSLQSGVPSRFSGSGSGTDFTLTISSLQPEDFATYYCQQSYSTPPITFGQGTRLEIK
B11: MAb16636 (antibody, V domains shown)
VH: QLQLQESGPGLVKPSETLSLICTVSGGSISSNNYYWGWIRQPPGKGLEWIGNLYGSGSTYYNPSLKSRVTISVDTSKNQFSLKLSFVTAADTAVYHCARWDTNGGAFDIWGQGTMVTVSS
VL: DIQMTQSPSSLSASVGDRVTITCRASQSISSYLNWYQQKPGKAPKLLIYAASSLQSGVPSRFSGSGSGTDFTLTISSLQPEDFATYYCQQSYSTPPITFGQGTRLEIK
B12: MAb16664 (antibody, V domains shown)
VH: QVQLVQSGTEVKKPGSSVKVSCKASGGTFSTYPINWVRQAPGQGLEWMGGIIPIFGTASYAQKFQGRVAITTDESTSTAYMELNSLRSEDTAVYYCARERPNWGSNDYWGQGTLVTVSS
VL: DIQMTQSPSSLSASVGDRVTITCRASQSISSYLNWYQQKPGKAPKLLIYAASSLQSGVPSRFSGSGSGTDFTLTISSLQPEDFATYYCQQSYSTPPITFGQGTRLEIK

T3 sequence (P40189 other isoform, or with tags, fused parts or gaps mutant limits assumed): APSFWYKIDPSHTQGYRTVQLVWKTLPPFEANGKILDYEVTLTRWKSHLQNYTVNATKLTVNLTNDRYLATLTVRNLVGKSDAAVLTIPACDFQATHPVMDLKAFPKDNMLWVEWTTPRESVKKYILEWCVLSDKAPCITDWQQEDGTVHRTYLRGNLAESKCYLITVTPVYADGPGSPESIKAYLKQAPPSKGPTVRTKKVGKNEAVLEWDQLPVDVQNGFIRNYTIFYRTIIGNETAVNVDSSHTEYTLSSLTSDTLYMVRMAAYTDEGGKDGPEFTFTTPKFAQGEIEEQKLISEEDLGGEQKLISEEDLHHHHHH

In the first test the target is T1, human GP130 extracellular domain expressed with a C-terminal myc-myc-hexahistidine tag (human, UniProt P40189 23-619).
T1 construct: monomeric; also called hGP130-mmH; hGP130-MMH
Nature of the test: SPR 25C, mAb captured, hGP130-MMH injected. Here is the method: (§1) Equilibrium dissociation constant (KD) for different GP130 reagents binding to purified anti-GP130 monoclonal antibodies were determined using a real-time surface plasmon resonance based Biacore 4000 biosensor. All binding studies were performed in 10 mM HEPES, 150 mM NaCl, 3 mM EDTA, and 0.05% v/v Surfactant Tween-20, pH 7.4 (HBS-ET) running buffer at 25° C. and 37° C. The Biacore sensor surface was first derivatized by amine coupling with a monoclonal mouse anti-human Fc antibody (GE, #BR-1008-39) to capture anti-GP130 monoclonal antibodies. […] Reagents tagged with “mmH” are monomeric, whereas reagents tagged with “mFc” are dimeric. Thus, for example, “hGP130-mmH” is also referred to as “monomeric human GP130,” and “hGP130-mFc” is also referred to as “dimeric human GP130.”
(§2) The association rate (k a) and dissociation rate (kd) were determined by fitting the real-time binding sensorgrams to a 1:1 binding model with mass transport limitation using Scrubber 2.0c curve-fitting software. Binding dissociation equilibrium constant (KD) and dissociative half-life (t ½) were calculated from the kinetic rates as: […]
With B1, the “100 nM Ag Bound (RU)” value is 138 RU, the Kd came to 14.4 nM, the koff was 0.00456 s⁻¹ and the kon is 317000 M⁻¹ s⁻¹. Moreover, the t½ turned out to be 3 min.

For the molecule B2, the “100 nM Ag Bound (RU)” value turned out to be 21 RU; the affinity, expressed as Kd, was 136 nM; the koff came out at 0.0164 s⁻¹; the kon stood at 121000 M⁻¹ s⁻¹. Further, the t½ worked out at 0.7 min.

For B3, the “100 nM Ag Bound (RU)” value was determined as 36 RU; the affinity, expressed as Kd, was 203 nM; the koff amounted to 0.0243 s⁻¹; the on-rate constant (kon) amounted to 120000 M⁻¹ s⁻¹. This molecule also had a t½ of 0.5 min.

B4: the “100 nM Ag Bound (RU)” value is 91 RU, binding was characterised by a dissociation constant (Kd) of 15.5 nM, the koff is 0.0011 s⁻¹ and the kon stood at 71100 M⁻¹ s⁻¹. The molecule further had a t½ of 10 min.

As to B5, the “100 nM Ag Bound (RU)” value worked out at 58 RU, the Kd stood at 65.5 nM, the dissociation rate constant (koff) worked out at 0.0141 s⁻¹ and the kon was 215000 M⁻¹ s⁻¹. In addition, the t½ amounted to 0.8 min.

As for B6, the “100 nM Ag Bound (RU)” value was 52 RU, the Kd worked out at 120 nM, the koff is 0.0425 s⁻¹ and the kon is 354000 M⁻¹ s⁻¹. Further, the t½ was determined as 0.3 min.

Take B7: the “100 nM Ag Bound (RU)” value was 77 RU, the Kd came to 0.663 nM, the koff is 0.000459 s⁻¹ and the on-rate (kon) was determined as 693000 M⁻¹ s⁻¹. Also, the t½ was determined as 25 min.

B8: the “100 nM Ag Bound (RU)” value came out at 44 RU, the Kd was found to be 23 nM, the koff was found to be 0.000825 s⁻¹ and the kon worked out at 35900 M⁻¹ s⁻¹. The t½ was determined as 14 min.

With B9, the “100 nM Ag Bound (RU)” value amounted to 22 RU, binding was put at a Kd of 123 nM, the koff came out at 0.029 s⁻¹ and the kon turned out to be 235000 M⁻¹ s⁻¹. Moreover, the t½ amounted to 0.4 min.

As to B10, the “100 nM Ag Bound (RU)” value is 18 RU, binding was put at a Kd of 183 nM, the koff was 0.0101 s⁻¹ and the kon is 55200 M⁻¹ s⁻¹. This molecule gave a t½ of 1.1 min.

With B11, the “100 nM Ag Bound (RU)” value worked out at 37 RU; the affinity, expressed as Kd, was 36.8 nM; the koff turned out to be 0.000993 s⁻¹; the kon is 27000 M⁻¹ s⁻¹. Also, the t½ was 12 min.

Take B12: the “100 nM Ag Bound (RU)” value stood at 14 RU, binding was characterised by a dissociation constant (Kd) of 2.35 nM, the koff stood at 0.00164 s⁻¹ and the kon was found to be 698000 M⁻¹ s⁻¹. Besides, the t½ amounted to 7 min.

The target in the next test is T2, mouse GP130 extracellular domain expressed with a C-terminal myc-myc-hexahistidine tag (mouse, UniProt Q00560 23-617).
T2 construct: monomeric; also called mGP130-mmH; mGP130-MMH
T2 sequence (Q00560 other isoform, or with tags, fused parts or gaps): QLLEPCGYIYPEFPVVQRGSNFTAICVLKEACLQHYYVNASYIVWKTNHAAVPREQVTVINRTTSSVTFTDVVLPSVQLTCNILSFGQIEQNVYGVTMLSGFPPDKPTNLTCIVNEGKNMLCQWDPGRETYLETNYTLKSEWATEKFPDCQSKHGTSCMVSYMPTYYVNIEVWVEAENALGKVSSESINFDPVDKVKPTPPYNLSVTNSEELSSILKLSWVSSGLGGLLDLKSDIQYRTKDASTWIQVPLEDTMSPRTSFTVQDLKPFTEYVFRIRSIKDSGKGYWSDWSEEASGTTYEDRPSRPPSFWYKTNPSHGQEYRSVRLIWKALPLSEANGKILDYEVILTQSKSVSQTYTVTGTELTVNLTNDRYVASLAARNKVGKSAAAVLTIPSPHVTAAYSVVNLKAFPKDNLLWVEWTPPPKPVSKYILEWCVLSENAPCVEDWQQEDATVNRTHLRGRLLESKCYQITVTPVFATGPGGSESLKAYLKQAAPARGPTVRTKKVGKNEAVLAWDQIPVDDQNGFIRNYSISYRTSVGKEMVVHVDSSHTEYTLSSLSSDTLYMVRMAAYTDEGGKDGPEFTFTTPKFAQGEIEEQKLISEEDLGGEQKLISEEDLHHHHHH
The test is described as follows: SPR. As for the experimental part: as §1, §2
In the case of B1, the binding result is “no binding (tested: 100 nM)”.

For B2, the binding result is reported as “no binding (tested: 100 nM)”.

Consider B3, for which the binding result is on record as “no binding (tested: 100 nM)”.

Consider B4, for which the binding result is recorded as “no binding (tested: 100 nM)”.

As to B5, the binding result is listed as “no binding (tested: 100 nM)”.

With B6, the binding result is “no binding (tested: 100 nM)”.

B7: the binding result is reported as “no binding (tested: 100 nM)”.

For the molecule B8, the binding result is “no binding (tested: 100 nM)”.

On to B9, for which the binding result is “no binding (tested: 100 nM)”.

For B10, the binding result is “no binding (tested: 100 nM)”.

As to B11, the binding result is reported as “no binding (tested: 100 nM)”.

Consider B12, for which the binding result is “no binding (tested: 100 nM)”.

The next test concerns the target T3, human GP130 delta D1-D3 expressed with a C-terminal myc-myc hexahistidine tag (human, UniProt P40189 329-619).
T3 construct: CHO supernatant, captured on anti-myc microspheres; also called human GP130 delta D1-D3-MMH
Nature of the test: Luminex, myc-captured antigen. As for the experimental part:
(§3) Aliquots of microspheres with immobilized anti-myc monoclonal antibodies, prepared as described above, were added individually to 1 mL of the each of these protein supernatants and to 500 uL of purified GP130 protein. The microspheres were gently mixed, incubated for two hours at 25° C., washed twice with 1 mL of DBPS, centrifuged to remove the supernatant and finally resuspended in 1 mL of DPBS buffer. Forty eight μL of anti-myc IgG coupled microspheres from individual reactions with full length human GP130 and with each of the human GP130 domain proteins were withdrawn and mixed together in 3.6 mL of PBS+20 mg/mL BSA+0.05% sodium azide (blocking buffer).
(§4) From this mixed pool, 75 μL of microspheres were plated per well on a 96 well filter plate (Millipore, Cat. No: MSBVN1250) and mixed with 25 μL of individual anti-human GP130 monoclonal antibodies (0.5 or 5 μg/mL), incubated for two hours at 25° C. and then washed twice with 200 μL of DPBS with 0.05% Tween 20 (washing buffer). To detect and quantify the amounts of bound anti-GP130 antibody levels to individual microspheres, either 100 μL of 2.5 μg/mL R-Phycoerythrin conjugated goat F(ab′)2 anti-human kappa (Southern Biotech, Cat #2063-09) in blocking buffer, was added and incubated for 30 minutes at 25° C. After 30 minutes, the samples were washed twice with 200 μL of washing buffer and resuspended in 150 μL of wash buffer. The Median Fluorescence intensity (MFI) of the microspheres was measured in a Luminex Analyzer.
For B1, the binding result was “no binding (tested: 0.5 or 5 µg/mL)”.

On to B2, for which the binding result is given as “no binding (tested: 0.5 or 5 µg/mL)”.

In the case of B3, the binding result was “no binding (tested: 0.5 or 5 µg/mL)”.

On to B4, for which the binding result is “no binding (tested: 0.5 or 5 µg/mL)”.

For B5, the binding result is recorded as “no binding (tested: 0.5 or 5 µg/mL)”.

Regarding B6, the binding result was “no binding (tested: 0.5 or 5 µg/mL)”.

Regarding B7, the binding result is given as “no binding (tested: 0.5 or 5 µg/mL)”.

As to B8, the binding result is on record as “no binding (tested: 0.5 or 5 µg/mL)”.

Turning to B9, the binding result is “no binding (tested: 0.5 or 5 µg/mL)”.

Turning to B10, the binding result is recorded as “no binding (tested: 0.5 or 5 µg/mL)”.

Take B11: the binding result is on record as “no binding (tested: 0.5 or 5 µg/mL)”.

Regarding B12, the binding result is “no binding (tested: 0.5 or 5 µg/mL)”.

A further test deals with T4, human GP130 delta D1 expressed with a C-terminal myc-myc hexahistidine tag (human, UniProt P40189 124-619).
T4 construct: CHO supernatant, captured on anti-myc microspheres; also called human GP130 delta D1-MMH
T4 sequence (P40189 other isoform, or with tags, fused parts or gaps mutant limits assumed): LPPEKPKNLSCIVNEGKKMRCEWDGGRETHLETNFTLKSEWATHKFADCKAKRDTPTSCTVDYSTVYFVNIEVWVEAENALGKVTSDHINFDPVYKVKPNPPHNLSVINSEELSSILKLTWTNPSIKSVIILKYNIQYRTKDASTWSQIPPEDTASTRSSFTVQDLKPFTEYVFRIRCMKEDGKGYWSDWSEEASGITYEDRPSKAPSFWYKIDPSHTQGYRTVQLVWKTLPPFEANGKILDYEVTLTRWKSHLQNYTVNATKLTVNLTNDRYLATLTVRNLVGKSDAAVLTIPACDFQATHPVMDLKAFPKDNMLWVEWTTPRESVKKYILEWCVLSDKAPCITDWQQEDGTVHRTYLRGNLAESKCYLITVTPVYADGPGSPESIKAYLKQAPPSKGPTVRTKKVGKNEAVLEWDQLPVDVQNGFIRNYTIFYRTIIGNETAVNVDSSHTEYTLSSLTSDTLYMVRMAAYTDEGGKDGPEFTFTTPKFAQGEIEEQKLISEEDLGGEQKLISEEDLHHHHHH
The test is described as follows: Luminex, myc-captured antigen. As for the experimental part:
as §3, §4
Consider B4, for which the binding result is listed as “no binding (tested: 0.5 or 5 µg/mL)”.

Turning to B7, the binding result is reported as “no binding (tested: 0.5 or 5 µg/mL)”.

With B8, the binding result is on record as “no binding (tested: 0.5 or 5 µg/mL)”.

Regarding B12, the binding result is listed as “no binding (tested: 0.5 or 5 µg/mL)”.

By Kd is commonly meant the constant that tells how readily two partners part at equilibrium. Lower therefore signals a tighter complex. One may read the koff as the first-order rate constant of dissociation. Usually kon stands for the second-order rate constant of association. What is called t½ is the time in which the quantity being followed falls by half. Read a high t½ as slow decline.
